The target in assay [1] is PhyT (formerly PhyP), T25 fusion. The experiment in a line: BACTH β-galactosidase assay. Conditions: Overnight cultures containing 0.5 mM IPTG and antibiotics for selection, 30°C; three biological replicates; parent: est. 3000; read off a plot.
Assay [2] concerns the target NepR wild-type, T25 fusion. The experiment in a line: BACTH β-galactosidase assay. Particulars: Overnight cultures containing 0.5 mM IPTG and antibiotics for selection, 30°C; three biological replicates; parent: est. 1500; read off a plot.

PhyR wild-type, T18 fusion D194A: the response was determined as 1100 Miller units in assay [1] and 300 Miller units in assay [2].

Take PhyR wild-type, T18 fusion D194A; E235A: the response in assay [1] came out at 780 Miller units; in assay [2], 6900 Miller units.

As for PhyR wild-type, T18 fusion E235A, the values for the response in assay [1] and in assay [2] were 3100 Miller units and 7100 Miller units, respectively.

Source of the values: publication PMC5898713.
